Results: patent US20240261333A1, “NOVEL TARGETS FOR ENHANCING ANTI-TUMOR IMMUNITY” (THE BROAD INSTITUTE, INC., priority 2021, published 2024)

Molecular target: T1, B3GNT2 (Homo sapiens, UniProt Q9NY97)
T1 construct: The respective ORFs of candidate genes [CD274 (NM_014143), MCL1 (NM_021960), JUNB (NM_002229), and B3GNT2 (NM_006577)] were synthesized; expressed in transfected cells; host or cells: A375 melanoma cells (lentiviral ORF overexpression)
T1 sequence (Q9NY97 1-397): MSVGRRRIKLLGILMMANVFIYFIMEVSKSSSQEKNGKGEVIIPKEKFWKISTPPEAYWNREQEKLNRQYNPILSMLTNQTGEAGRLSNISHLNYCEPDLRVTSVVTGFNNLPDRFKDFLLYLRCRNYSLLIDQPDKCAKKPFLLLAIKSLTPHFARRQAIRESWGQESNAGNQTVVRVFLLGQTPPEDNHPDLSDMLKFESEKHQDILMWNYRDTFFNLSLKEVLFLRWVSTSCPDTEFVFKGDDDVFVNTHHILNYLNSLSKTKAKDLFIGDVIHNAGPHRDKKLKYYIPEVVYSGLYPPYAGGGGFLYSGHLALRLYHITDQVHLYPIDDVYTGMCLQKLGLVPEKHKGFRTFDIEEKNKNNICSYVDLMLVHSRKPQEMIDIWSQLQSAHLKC
Test: Co-IP of FLAG-tagged B3GNT2 followed by mass spectrometry
Assay type: cell-based
Set-up: C-term IgG / C-term flag: unit not given here
Experimental: Cells were plated in 10-cm cell culture dishes and grown to 60-80% confluency. For each condition, two biological replicates were harvested for co-IP. Cells were washed with PBS and 4 mL of lysis buffer (20 mM HEPES, 1% Triton X-100, 150 mM NaCl, 1 mM EDTA, and 10% glycerol) containing protease inhibitor cocktail was added. Cells were scraped and lysate was incubated at 4° C. under rotary agitation for 1 h. Lysate was centrifuged at 14,000×g for 10 min at 4° C. Supernatant was transferred to a new tube and an aliquot was taken as the input. […] For Western blots, 10 μg/mL Chicken Anti-FLAG (Aves labs ET-DY100) and IgY control (R&D Systems AB-101-C) antibodies were biotinylated (Thermo Fisher Scientific 90407) and added to the respective conditions. Lysates with antibodies were incubated at 4° C. under rotary agitation overnight. For each mL of lysate, 50 μL of Pierce Protein A/G Magnetic Beads (Mass spectrometry; Thermo Fisher Scientific 88803) or Pierce Streptavidin Magnetic Beads (Western blot; Thermo Fisher Scientific 88817) was washed twice with lysis buffer. Lysates with antibodies were added to the beads and incubated at 4° C. under rotary agitation for 4 h. Beads were washed with lysis buffer 3 times and resuspended in lysis buffer for storage. […] This solution was subjected to solid phase extraction to concentrate the peptides and remove unwanted reagents followed by injection onto a Shimadzu HPLC with fraction collector. Eight fractions were collected and after concentration were injected on a Waters NanoAcquity HPLC equipped with a self-packed Aeris 3 μm C18 analytical column 0.075 mm by 20 cm, (Phenomenex). Peptides were eluted using standard reverse-phase gradients. The effluent from the column was analyzed using a Thermo Orbitrap Elite mass spectrometer (nanospray configuration) operated in a data dependent manner for 54 minutes. […] Scaffold Q+S (Proteome Software) was used to provide consensus reports for the identified proteins.

[1] = Co-IP with FLAG antibody, C-terminally FLAG-tagged B3GNT2, mass spectrometry count, unit not given
[2] = Co-IP with FLAG antibody, N-terminally FLAG-tagged B3GNT2, mass spectrometry count, unit not given
[3] = Co-IP with IgG control antibody, C-terminally FLAG-tagged B3GNT2, mass spectrometry count, unit not given
[4] = Co-IP with IgG control antibody, N-terminally FLAG-tagged B3GNT2, mass spectrometry count, unit not given
[5] = Co-IP followed by mass spectrometry of B3GNT2, C-term tag, FLAG pull-down
[6] = Co-IP followed by mass spectrometry of B3GNT2, C-term tag, IgG pull-down
[7] = Co-IP followed by mass spectrometry of B3GNT2, N-term tag, FLAG pull-down
[8] = Co-IP followed by mass spectrometry of B3GNT2, N-term tag, IgG pull-down

Substance: ABCD1
- C-term flag [1]: 2
- N-term FLAG [2]: 0
- C-term IgG [3]: 0
- N-term IgG [4]: 0

Substance: ABCF1
- C-term flag [1]: 2
- N-term FLAG [2]: 0
- C-term IgG [3]: 0
- N-term IgG [4]: 0

Substance: AIFM1
- C-term flag [1]: 5
- N-term FLAG [2]: 5
- C-term IgG [3]: 0
- N-term IgG [4]: 0

Substance: ATM
- C-term flag [1]: 0
- N-term FLAG [2]: 3
- C-term IgG [3]: 0
- N-term IgG [4]: 0

Substance: ATP5F1B
- C-term flag [5]: 4
- C-term IgG [6]: 0
- N-term FLAG [7]: 2
- N-term IgG [8]: 0

Substance: CALU
- C-term flag [1]: 13
- N-term FLAG [2]: 10
- C-term IgG [3]: 0
- N-term IgG [4]: 0

Substance: CCT3
- C-term flag [5]: 5
- C-term IgG [6]: 0
- N-term FLAG [7]: 0
- N-term IgG [8]: 0

Substance: CEP170
- C-term flag [1]: 2
- N-term FLAG [2]: 0
- C-term IgG [3]: 0
- N-term IgG [4]: 0

Substance: CFL1
- C-term flag [5]: 6
- C-term IgG [6]: 3
- N-term FLAG [7]: 5
- N-term IgG [8]: 3

Substance: CLTC
- C-term flag [5]: 7
- C-term IgG [6]: 5
- N-term FLAG [7]: 6
- N-term IgG [8]: 6

Substance: CSPG4
- C-term flag [1]: 12
- N-term FLAG [2]: 2
- C-term IgG [3]: 0
- N-term IgG [4]: 0

Substance: CTSD
- C-term flag [1]: 4
- N-term FLAG [2]: 3
- C-term IgG [3]: 0
- N-term IgG [4]: 3

Substance: DHX9
- C-term flag [5]: 5
- C-term IgG [6]: 0
- N-term FLAG [7]: 0
- N-term IgG [8]: 0

Substance: DNAJA1
- C-term flag [1]: 10
- N-term FLAG [2]: 6
- C-term IgG [3]: 0
- N-term IgG [4]: 0

Substance: DNAJA2
- C-term flag [5]: 3
- C-term IgG [6]: 0
- N-term FLAG [7]: 3
- N-term IgG [8]: 0

Substance: ECPAS
- C-term flag [1]: 0
- N-term FLAG [2]: 3
- C-term IgG [3]: 0
- N-term IgG [4]: 0

Substance: EIF4A1
- C-term flag [1]: 6
- N-term FLAG [2]: 2
- C-term IgG [3]: 0
- N-term IgG [4]: 0

Substance: EIF4G1
- C-term flag [5]: 6
- C-term IgG [6]: 2
- N-term FLAG [7]: 2
- N-term IgG [8]: 2

Substance: ELOC
- C-term flag [1]: 2
- N-term FLAG [2]: 0
- C-term IgG [3]: 0
- N-term IgG [4]: 0

Substance: EMD
- C-term flag [5]: 2
- C-term IgG [6]: 2
- N-term FLAG [7]: 2
- N-term IgG [8]: 0

Substance: ENO1
- C-term flag [1]: 4
- N-term FLAG [2]: 5
- C-term IgG [3]: 2
- N-term IgG [4]: 2

Substance: EPRS
- C-term flag [1]: 4
- N-term FLAG [2]: 3
- C-term IgG [3]: 0
- N-term IgG [4]: 0

Substance: ERLIN2
- C-term flag [1]: 9
- N-term FLAG [2]: 8
- C-term IgG [3]: 0
- N-term IgG [4]: 0

Substance: ERP29
- C-term flag [1]: 0
- N-term FLAG [2]: 2
- C-term IgG [3]: 0
- N-term IgG [4]: 0

Substance: FABP5
- C-term flag [1]: 8
- N-term FLAG [2]: 6
- C-term IgG [3]: 0
- N-term IgG [4]: 2

Substance: FKBP10
- C-term flag [1]: 16
- N-term FLAG [2]: 0
- C-term IgG [3]: 0
- N-term IgG [4]: 0

Substance: FLG
- C-term flag [5]: 22
- C-term IgG [6]: 15
- N-term FLAG [7]: 29
- N-term IgG [8]: 20

Substance: GALNT2
- C-term flag [1]: 2
- N-term FLAG [2]: 0
- C-term IgG [3]: 0
- N-term IgG [4]: 0

Substance: GAPDH
- C-term flag [1]: 16
- N-term FLAG [2]: 18
- C-term IgG [3]: 6
- N-term IgG [4]: 11

Substance: GBF1
- C-term flag [5]: 5
- C-term IgG [6]: 0
- N-term FLAG [7]: 0
- N-term IgG [8]: 0

Substance: GCN1
- C-term flag [1]: 4
- N-term FLAG [2]: 14
- C-term IgG [3]: 0
- N-term IgG [4]: 0

Substance: HADHA
- C-term flag [1]: 2
- N-term FLAG [2]: 0
- C-term IgG [3]: 0
- N-term IgG [4]: 0

Substance: HBA1
- C-term flag [1]: 4
- N-term FLAG [2]: 3
- C-term IgG [3]: 0
- N-term IgG [4]: 3

Substance: HBB
- C-term flag [5]: 0
- C-term IgG [6]: 0
- N-term FLAG [7]: 4
- N-term IgG [8]: 0

Substance: HDGFL2
- C-term flag [1]: 2
- N-term FLAG [2]: 0
- C-term IgG [3]: 0
- N-term IgG [4]: 0

Substance: HERC2
- C-term flag [1]: 3
- N-term FLAG [2]: 0
- C-term IgG [3]: 0
- N-term IgG [4]: 0

Substance: HNRNPA2B1
- C-term flag [5]: 8
- C-term IgG [6]: 9
- N-term FLAG [7]: 7
- N-term IgG [8]: 4

Substance: HNRNPK
- C-term flag [5]: 12
- C-term IgG [6]: 10
- N-term FLAG [7]: 9
- N-term IgG [8]: 8

Substance: HNRNPU
- C-term flag [5]: 12
- C-term IgG [6]: 0
- N-term FLAG [7]: 0
- N-term IgG [8]: 2

Substance: HSP90AB1
- C-term flag [1]: 11
- N-term FLAG [2]: 10
- C-term IgG [3]: 2
- N-term IgG [4]: 0

Substance: HSP90B1
- C-term flag [1]: 56
- N-term FLAG [2]: 9
- C-term IgG [3]: 0
- N-term IgG [4]: 0

Substance: HSPA5
- C-term flag [1]: 130
- N-term FLAG [2]: 70
- C-term IgG [3]: 12
- N-term IgG [4]: 9

Substance: HSPA8
- C-term flag [5]: 49
- C-term IgG [6]: 15
- N-term FLAG [7]: 41
- N-term IgG [8]: 16

Substance: HSPB1
- C-term flag [5]: 4
- C-term IgG [6]: 0
- N-term FLAG [7]: 3
- N-term IgG [8]: 4

Substance: HUWE1
- C-term flag [5]: 0
- C-term IgG [6]: 0
- N-term FLAG [7]: 3
- N-term IgG [8]: 0

Substance: IPO13
- C-term flag [1]: 2
- N-term FLAG [2]: 0
- C-term IgG [3]: 0
- N-term IgG [4]: 0

Substance: ITGB3
- C-term flag [5]: 3
- C-term IgG [6]: 0
- N-term FLAG [7]: 3
- N-term IgG [8]: 0

Substance: KRT4
- C-term flag [5]: 37
- C-term IgG [6]: 0
- N-term FLAG [7]: 22
- N-term IgG [8]: 21

Substance: LAMB1
- C-term flag [1]: 2
- N-term FLAG [2]: 0
- C-term IgG [3]: 0
- N-term IgG [4]: 0

Substance: LAMC1
- C-term flag [5]: 4
- C-term IgG [6]: 0
- N-term FLAG [7]: 0
- N-term IgG [8]: 0

Substance: LARP4
- C-term flag [1]: 2
- N-term FLAG [2]: 0
- C-term IgG [3]: 0
- N-term IgG [4]: 0

Substance: LCN1
- C-term flag [5]: 11
- C-term IgG [6]: 6
- N-term FLAG [7]: 11
- N-term IgG [8]: 9

Substance: LGALS7B
- C-term flag [5]: 4
- C-term IgG [6]: 3
- N-term FLAG [7]: 7
- N-term IgG [8]: 4

Substance: LRP2
- C-term flag [1]: 2
- N-term FLAG [2]: 0
- C-term IgG [3]: 0
- N-term IgG [4]: 0

Substance: LYZ
- C-term flag [1]: 6
- N-term FLAG [2]: 3
- C-term IgG [3]: 0
- N-term IgG [4]: 4

Substance: MAP1B
- C-term flag [1]: 2
- N-term FLAG [2]: 0
- C-term IgG [3]: 0
- N-term IgG [4]: 0

Substance: MON2
- C-term flag [1]: 3
- N-term FLAG [2]: 0
- C-term IgG [3]: 0
- N-term IgG [4]: 0

Substance: MYH11
- C-term flag [5]: 7
- C-term IgG [6]: 5
- N-term FLAG [7]: 2
- N-term IgG [8]: 3

Substance: NPM1
- C-term flag [1]: 8
- N-term FLAG [2]: 0
- C-term IgG [3]: 0
- N-term IgG [4]: 0

Substance: P4HB
- C-term flag [1]: 23
- N-term FLAG [2]: 3
- C-term IgG [3]: 0
- N-term IgG [4]: 0

Substance: P01837.1
- C-term flag [5]: 146
- C-term IgG [6]: 108
- N-term FLAG [7]: 89
- N-term IgG [8]: 87

Substance: PABPC1
- C-term flag [5]: 41
- C-term IgG [6]: 30
- N-term FLAG [7]: 31
- N-term IgG [8]: 37

Substance: PCBP1
- C-term flag [1]: 4
- N-term FLAG [2]: 4
- C-term IgG [3]: 3
- N-term IgG [4]: 0
